# Source: IntAct's records for PubMed 31515488
# B1: Paraneoplastic antigen Ma2 (Homo sapiens), Q9UL42 (parent)
# chain: MALALLEDWCRIMSVDEQKSLMVTGIPADFEEAEIQEVLQETLKSLGRYRLLGKIFRKQENANAVLLELLEDTDVSAIPSEVQGKGGVWKVIFKTPNQDTEFLERLNLFLEKEGQTVSGMFRALGQEGVSPATVPCISPELLAHLLGQAMAHAPQPLLPMRYRKLRVFSGSAVPAPEEESFEVWLEQATEIVKEWPVTEAEKKRWLAESLRGPALDLMHIVQADNPSISVEECLEAFKQVFGSLESRRTAQVRYLKTYQEEGEKVSAYVLRLETLLRRAVEKRAIPRRIADQVRLEQVMAGATLNQMLWCRLRELKDQGPPPSFLELMKVIREEEEEEASFENESIEEPEERDGYGRWNHEGDD
# B2: Protein LDOC1 (Homo sapiens), O95751 (parent)
# chain: MVDELVLLLHALLMRHRALSIENSQLMEQLRLLVCERASLLRQVRPPSCPVPFPETFNGESSRLPEFIVQTASYMLVNENRFCNDAMKVAFLISLLTGEAEEWVVPYIEMDSPILGDYRAFLDEMKQCFGWDDDEDDDDEEEEDDY
# partner: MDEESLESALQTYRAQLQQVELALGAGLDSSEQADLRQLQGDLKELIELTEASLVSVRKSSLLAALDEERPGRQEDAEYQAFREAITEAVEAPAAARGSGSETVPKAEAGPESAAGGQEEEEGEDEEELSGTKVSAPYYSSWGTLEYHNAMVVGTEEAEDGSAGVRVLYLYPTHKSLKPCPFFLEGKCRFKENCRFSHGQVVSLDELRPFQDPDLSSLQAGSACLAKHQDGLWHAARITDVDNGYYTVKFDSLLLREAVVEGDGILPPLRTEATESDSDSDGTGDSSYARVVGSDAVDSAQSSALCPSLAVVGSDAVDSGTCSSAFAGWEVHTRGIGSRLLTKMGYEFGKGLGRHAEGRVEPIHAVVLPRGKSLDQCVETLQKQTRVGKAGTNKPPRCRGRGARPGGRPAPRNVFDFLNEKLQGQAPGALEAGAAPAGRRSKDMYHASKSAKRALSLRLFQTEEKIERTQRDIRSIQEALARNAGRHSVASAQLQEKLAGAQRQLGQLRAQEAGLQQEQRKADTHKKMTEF
# B3: Microtubule-associated tumor suppressor candidate 2 (Homo sapiens), Q5JR59-3 (parent)
# chain: MGHCCCKPYNCLQCLDKTNESALVKEKELSIELANIRDEVAFHTAKCEKLQKEKEELERRFEDEVKRLGWQQQAELQELEERLQLQFEAEMARLQEEHGDQLLSIRCQHQEQVEDLTASHDAALLEMENNHTVAITILQDDHDHKVQELMSTHELEKKELEENFEKLRLSLQDQVDTLTFQSQSLRDRARRFEEALRKNTEEQLEIALAPYQHLEEDMKSLKQVLEMKNQQIHEQEKKILELEKLAEKNIILEEKIQVLQQQNEDLKARIDQNTVVTRQLSEENANLQEYVEKETQEKKRLSRTNEELLWKLQTGDPTSPIKLSPTSPVYRGSSSGPSSPARVSTTPR
# partner: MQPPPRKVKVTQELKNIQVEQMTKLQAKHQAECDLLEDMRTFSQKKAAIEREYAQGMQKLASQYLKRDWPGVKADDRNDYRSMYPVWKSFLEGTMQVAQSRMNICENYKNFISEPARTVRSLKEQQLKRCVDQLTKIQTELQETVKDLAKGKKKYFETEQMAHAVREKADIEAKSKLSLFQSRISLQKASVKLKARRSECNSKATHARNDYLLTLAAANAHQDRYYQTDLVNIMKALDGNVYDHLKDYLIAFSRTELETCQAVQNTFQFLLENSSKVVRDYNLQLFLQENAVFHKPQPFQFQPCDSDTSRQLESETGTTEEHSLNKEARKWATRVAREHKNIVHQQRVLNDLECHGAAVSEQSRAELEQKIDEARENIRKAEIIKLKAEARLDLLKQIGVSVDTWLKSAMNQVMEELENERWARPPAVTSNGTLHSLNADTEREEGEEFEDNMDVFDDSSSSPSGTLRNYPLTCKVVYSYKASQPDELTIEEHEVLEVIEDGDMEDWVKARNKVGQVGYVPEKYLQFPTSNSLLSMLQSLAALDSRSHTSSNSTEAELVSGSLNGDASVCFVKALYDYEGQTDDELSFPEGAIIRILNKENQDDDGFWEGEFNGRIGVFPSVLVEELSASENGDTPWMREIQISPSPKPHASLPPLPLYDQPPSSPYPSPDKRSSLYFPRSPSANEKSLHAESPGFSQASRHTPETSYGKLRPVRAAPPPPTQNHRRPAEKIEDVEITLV
# B4: Rhophilin-1 (Homo sapiens), Q8TCX5 (parent)
# chain: MILEERPDGAGAGEESPRLQGCDSLTQIQCGQLQSRRAQIHQQIDKELQMRTGAENLYRATSNNRVRETVALELSYVNSNLQLLKEELEELSGGVDPGRHGSEAVTVPMIPLGLKETKELDWSTPLKELISVHFGEDGASYEAEIRELEALRQAMRTPSRNESGLELLTAYYNQLCFLDARFLTPARSLGLFFHWYDSLTGVPAQQRALAFEKGSVLFNIGALHTQIGARQDRSCTEGARRAMEAFQRAAGAFSLLRENFSHAPSPDMSAASLCALEQLMMAQAQECVFEGLSPPASMAPQDCLAQLRLAQEAAQVAAEYRLVHRTMAQPPVHDYVPVSWTALVHVKAEYFRSLAHYHVAMALCDGSPATEGELPTHEQVFLQPPTSSKPRGPVLPQELEERRQLGKAHLKRAILGQEEALRLHALCRVLREVDLLRAVISQTLQRSLAKYAELDREDDFCEAAEAPDIQPKTHQKPEARMPRLSQGKGPDIFHRLGPLSVFSAKNRWRLVGPVHLTRGEGGFGLTLRGDSPVLIAAVIPGSQAAAAGLKEGDYIVSVNGQPCRWWRHAEVVTELKAAGEAGASLQVVSLLPSSRLPSLGDRRPVLLGPRGLLRSQREHGCKTPASTWASPRPLLNWSRKAQQGKTGGCPQPCAPVKPAPPSSLKHPGWP
# B5: Notch homolog 2 N-terminal-like protein A (Homo sapiens), Q7Z3S9 (parent)
# chain: MCVTYHNGTGYCKCPEGFLGEYCQHRDPCEKNRCQNGGTCVAQAMLGKATCRCASGFTGEDCQYSTSHPCFVSRPCLNGGTCHMLSRDTYECTCQVGFTGKECQWTDACLSHPCANGSTCTTVANQFSCKCLTGFTGQKCETDVNECDIPGHCQHGGTCLNLPGSYQCQCLQGFTGQYCDSLYVPCAPSPCVNGGTCRQTGDFTFECNCLPETVRRGTELWERDREVWNGKEHDEN
# partner: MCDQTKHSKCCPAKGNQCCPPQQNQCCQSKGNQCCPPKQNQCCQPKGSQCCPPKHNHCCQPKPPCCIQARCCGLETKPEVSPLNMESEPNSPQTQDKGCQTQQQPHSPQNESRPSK
# Variants of: B1
# Settings: with sdcb1_human SDCBP
row,effect of a mutation on the interaction,Variant
1,with no effect,E186K

# Variants of: B1
# Settings: with psa1_human PSMA1, P25786
# Sequence of psa1_human PSMA1, P25786 (P25786 whole entry): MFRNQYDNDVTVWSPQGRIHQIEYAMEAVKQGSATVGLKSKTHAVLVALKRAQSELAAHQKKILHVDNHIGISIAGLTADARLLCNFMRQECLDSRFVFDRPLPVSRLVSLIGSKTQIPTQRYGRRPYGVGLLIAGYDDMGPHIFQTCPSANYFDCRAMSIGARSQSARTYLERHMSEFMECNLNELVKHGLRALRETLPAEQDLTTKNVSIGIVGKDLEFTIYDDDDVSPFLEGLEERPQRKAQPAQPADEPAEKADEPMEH
row,effect of a mutation on the interaction,Variant
1,with no effect,E186K

# Variants of: B2
# Settings: with zgpat_human ZGPAT
row,effect of a mutation on the interaction,Variant
1,disrupting interaction strength,L12H

# Variants of: B3
# Settings: with fcsd2_human FCHSD2, O94868
row,effect of a mutation on the interaction,Variant
1,with no effect,A89V

# Variants of: B4
# Settings: with mtus2_human MTUS2, Q5JR59
# Sequence of mtus2_human MTUS2, Q5JR59 (Q5JR59 whole entry): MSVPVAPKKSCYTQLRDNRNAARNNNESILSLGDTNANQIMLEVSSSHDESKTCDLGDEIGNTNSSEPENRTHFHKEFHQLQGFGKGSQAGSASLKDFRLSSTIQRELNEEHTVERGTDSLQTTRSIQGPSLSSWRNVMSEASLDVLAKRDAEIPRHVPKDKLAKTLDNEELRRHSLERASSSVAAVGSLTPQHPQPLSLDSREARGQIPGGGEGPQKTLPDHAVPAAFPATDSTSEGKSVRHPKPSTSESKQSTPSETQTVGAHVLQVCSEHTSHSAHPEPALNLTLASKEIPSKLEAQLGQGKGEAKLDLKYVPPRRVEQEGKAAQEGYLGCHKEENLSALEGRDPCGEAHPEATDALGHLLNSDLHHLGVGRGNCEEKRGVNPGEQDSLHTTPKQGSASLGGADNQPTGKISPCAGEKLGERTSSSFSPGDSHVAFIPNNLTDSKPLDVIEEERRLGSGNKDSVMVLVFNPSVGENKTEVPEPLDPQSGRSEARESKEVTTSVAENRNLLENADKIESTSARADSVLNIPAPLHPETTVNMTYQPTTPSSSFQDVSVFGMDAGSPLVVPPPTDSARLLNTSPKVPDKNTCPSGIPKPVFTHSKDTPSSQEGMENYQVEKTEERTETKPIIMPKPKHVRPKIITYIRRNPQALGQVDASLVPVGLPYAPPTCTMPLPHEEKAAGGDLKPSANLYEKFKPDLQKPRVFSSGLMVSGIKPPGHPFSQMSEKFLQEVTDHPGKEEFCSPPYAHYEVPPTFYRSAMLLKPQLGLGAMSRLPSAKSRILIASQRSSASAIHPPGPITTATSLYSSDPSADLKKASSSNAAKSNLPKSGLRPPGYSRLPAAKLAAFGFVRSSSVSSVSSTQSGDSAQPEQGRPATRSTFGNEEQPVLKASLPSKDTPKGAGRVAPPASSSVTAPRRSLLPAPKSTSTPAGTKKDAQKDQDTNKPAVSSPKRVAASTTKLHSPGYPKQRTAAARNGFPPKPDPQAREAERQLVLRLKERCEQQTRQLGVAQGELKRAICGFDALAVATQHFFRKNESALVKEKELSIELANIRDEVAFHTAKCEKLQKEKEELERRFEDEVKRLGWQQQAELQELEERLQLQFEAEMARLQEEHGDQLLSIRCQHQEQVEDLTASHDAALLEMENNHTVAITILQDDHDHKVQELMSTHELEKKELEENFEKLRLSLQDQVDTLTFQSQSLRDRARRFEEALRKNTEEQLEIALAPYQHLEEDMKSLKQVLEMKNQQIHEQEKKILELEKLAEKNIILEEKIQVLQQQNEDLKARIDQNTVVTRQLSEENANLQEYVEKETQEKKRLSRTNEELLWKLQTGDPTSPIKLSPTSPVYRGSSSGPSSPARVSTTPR
row,effect of a mutation on the interaction,Variant
1,with no effect,A536T

# Variants of: B5
# Settings: with mcsp_human SMCP
row,effect of a mutation on the interaction,Variant
1,with no effect,A115T
